Entries after “also recorded” stand apart in the source; their conditions may differ. Like-named read-outs stand apart in the source and are kept apart here.
Assays:
[1] = cited from earlier work
[2] = Phase 1b study (Example 10): bemarituzumab serum concentration / PK with CAPOX with or without nivolumab; format: in vivo, human; details: for Cycle 1 Cmax (median) / Cycle 1 Ctrough (median) / Cycle 2 Cmax (median) / Cycle 2 Ctrough (median): serum, preliminary
Text: The actual sample collection date and time (24-hour clock time) of each sample will be recorded.

[3] = Phase 1b study (Example 10): safety of bemarituzumab with CAPOX with or without nivolumab; format: in vivo, human; details: cohort A (DL1 & DL2) and cohort C; based on the known bemarituzumab safety profile
[4] = Pharmacokinetics after intravenous administration in cynomolgus monkeys; format: in vivo
Description: (§1) The half-life was dose-dependent, ranging from 0.8 days at the lowest doses (1 to 1.5 mg/kg) to at least 8 days at the highest doses (100 to 150 mg/kg) tested in cynomolgus monkeys. […] Target-mediated clearance was saturable, marked by dose-proportional increases in exposure at doses exceeding this level when dosed at weekly intervals. […] As such, it is contemplated that in some embodiments, subjects treated with bemarituzumab are not pregnant.

[5] = Embryo-fetal development with prenatal and postnatal development study; format: in vivo; details: all dose levels (5 to 100 mg/kg/doses)
Description: as §1

[6] = biological target: T1, FGFR2b (Homo sapiens, UniProt P21802); assay: FGF ligand-stimulated FGFR2b phosphorylation and receptor level in cell culture; format: cell-based
T1 construct: in cell culture in FGFR2b overexpressing gastric and breast cancer cell lines; endogenous in cells

[7] = tested on: FGFR2b overexpressing gastric and breast cancer cell lines; assay: Cell proliferation in cell culture; format: cell-based; details: FGF ligand-stimulated
[8] = tested on: FGFR2b overexpressing gastric and breast xenograft models; assay: Tumor xenograft models; format: in vivo
[9] = tested on: FGF23 signaling; assay: FGF23 signaling; details: in contrast to the FGFR tyrosine kinase inhibitors
[10] = biological target: FcγRIIIa (Homo sapiens, UniProt P08637); assay: Affinity for Fc receptor; format: binding; details: compared to the fucosylated molecule
Text: In the method of some embodiments, the anti-FGFR2 antibody comprises the heavy chain of SEQ ID NO: 2 and the light chain of SEQ ID NO: 3, and is afucosylated.

[11] = tested on: FGFR substrate-2 (FRS2); assay: Downstream signaling: phosphorylation of FGFR substrate-2 (FRS2); format: cell-based
Description: The effect on downstream signaling was measured by examining phosphorylation of a protein that is directly phosphorylated by the FGFR2 protein, FGFR substrate-2 (FRS2).

[12] = Clinical safety of bemarituzumab (earlier studies, with mFOLFOX6); format: in vivo, human
Text: Corneal events are very common with bemarituzumab with the most common adverse event being dry eye. Although nearly all of the events have been non-serious, grade 3 events such ulcerative keratitis and punctate keratitis which can lead to decreases in visual acuity have been observed. The majority of the corneal events typically resolve with treatment interruption or discontinuation and standard of care interventions for the corneal events. As such, it is contemplated that in some embodiments, subjects treated with bemarituzumab are further treated with ocular lubricants. The ocular lubricants may be administered prophylactically to reduce the risk of corneal events.

[13] = treatment with bemarituzumab, versus FGFR TKIs; cited from earlier work
[14] = Cohort A DL1: 15 mg/kg IV Q3W + 7.5 mg/kg C1D8 + CAPOX, N=6
[15] = Cohort A DL2: 22 mg/kg IV Q3W + 11 mg/kg C1D8 + CAPOX, N=4
[16] = Cohort C: 22 mg/kg IV Q3W + 11 mg/kg C1D8 + CAPOX + Nivo, N=6

T1 sequence (P21802 22-822 isoform P21802-3 limits assumed): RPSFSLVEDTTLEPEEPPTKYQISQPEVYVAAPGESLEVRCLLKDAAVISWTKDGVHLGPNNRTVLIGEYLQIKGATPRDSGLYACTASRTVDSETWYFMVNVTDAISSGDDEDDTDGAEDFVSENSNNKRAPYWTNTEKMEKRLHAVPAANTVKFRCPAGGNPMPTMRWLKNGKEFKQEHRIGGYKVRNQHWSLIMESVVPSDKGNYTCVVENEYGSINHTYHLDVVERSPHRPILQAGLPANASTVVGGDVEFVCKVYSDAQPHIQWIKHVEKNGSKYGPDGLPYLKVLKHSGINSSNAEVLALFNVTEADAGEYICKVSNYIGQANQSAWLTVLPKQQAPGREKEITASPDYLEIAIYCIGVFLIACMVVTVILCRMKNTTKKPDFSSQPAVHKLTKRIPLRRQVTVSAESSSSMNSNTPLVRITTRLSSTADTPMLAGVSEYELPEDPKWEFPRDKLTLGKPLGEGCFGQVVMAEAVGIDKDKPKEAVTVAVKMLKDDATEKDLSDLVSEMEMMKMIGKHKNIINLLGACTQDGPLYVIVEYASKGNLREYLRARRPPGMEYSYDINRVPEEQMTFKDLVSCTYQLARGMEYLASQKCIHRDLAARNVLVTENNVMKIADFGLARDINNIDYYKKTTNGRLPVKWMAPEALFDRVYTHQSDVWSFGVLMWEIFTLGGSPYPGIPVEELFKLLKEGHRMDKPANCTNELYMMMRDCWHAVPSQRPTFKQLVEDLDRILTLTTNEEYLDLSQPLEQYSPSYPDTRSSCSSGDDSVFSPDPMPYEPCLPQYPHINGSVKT
Sequence of FcγRIIIa (P08637 17-254): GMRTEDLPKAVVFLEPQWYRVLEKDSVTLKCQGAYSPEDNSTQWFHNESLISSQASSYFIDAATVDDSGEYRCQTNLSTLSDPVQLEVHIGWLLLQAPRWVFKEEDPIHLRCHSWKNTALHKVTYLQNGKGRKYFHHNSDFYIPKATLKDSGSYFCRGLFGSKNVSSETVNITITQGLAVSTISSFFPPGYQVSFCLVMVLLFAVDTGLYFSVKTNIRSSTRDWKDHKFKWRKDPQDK

O=C1[O][Pt]2([NH][C@@H]3CCCC[C@H]3[NH]2)[O]C1=O [oxaliplatin]
most common side effects ([1]; (40%)): peripheral sensory neuropathy, neutropenia, thrombocytopenia, anemia, nausea, increase in transaminases and alkaline phosphatase, diarrhea, emesis, fatigue, and stomatitis

bemarituzumab
drug-drug interaction (DDI) with respect to PK between bemarituzumab and nivolumab ([2]; CAPOX background): No drug-drug interaction | Cycle 1 Cmax (median) [2, 14]: 360.8 µg/mL | Cycle 1 Ctrough (median) [2, 14]: 111.5 µg/mL | Cycle 2 Cmax (median) [2, 14]: 457.0 µg/mL | Cycle 2 Ctrough (median) [2, 14]: 86.6 µg/mL | Cycle 1 Cmax (median) [2, 15]: 333.8 µg/mL | Cycle 1 Ctrough (median) [2, 15]: 125.9 µg/mL | Cycle 2 Cmax (median) [2, 15]: 655.8 µg/mL | Cycle 2 Ctrough (median) [2, 15]: 71.1 µg/mL | Cycle 1 Cmax (median) [2, 16]: 381.4 µg/mL | Cycle 1 Ctrough (median) [2, 16]: 130.1 µg/mL | Cycle 2 Cmax (median) [2, 16]: 549.8 µg/mL | Cycle 2 Ctrough (median) [2, 16]: 133.0 µg/mL | safety findings [3]: no new safety findings | half-life ([4]; highest doses (100 to 150 mg/kg) tested): at least 8 days | half-life ([4]; lowest doses (1 to 1.5 mg/kg)): 19 h | PK behaviour ([4]; rats and cynomolgus monkeys): dose-dependent, nonlinear PK | reproductive and developmental toxicities [5]: Significant reproductive and developmental toxicities were observed at all dose levels | FGFR2b receptor level [6]: downregulates the receptor | FGFR2b phosphorylation ([6]; FGF ligand-stimulated, FGFR2b overexpressing gastric and breast cancer cell lines): inhibits; also recorded: blocks | cell proliferation [7]: inhibits | tumor growth ([8]; FGFR2b overexpressing gastric and breast xenograft models): inhibits tumor growth | anti-tumor activity ([8]; FGFR2b-overexpressing human tumor xenograft models, well-tolerated doses): dose-related anti-tumor activity with regression and complete responses | FGF23 signaling [9]: does not inhibit | affinity for the Fc receptor FcγRIIIa [10]: higher affinity | downstream signaling (FRS2 phosphorylation) [11]: inhibits downstream signaling | safety profile ([12]; human, in vivo): acceptable safety profile | identified risks ([12]; in combination with mFOLFOX6): corneal toxicity, infusion related reactions, gastrointestinal toxicity (stomatitis and mucosal inflammation), nail toxicity and increase in AST and ALT | hyperphosphatemia [13]: not associated with the hyperphosphatemia

CCCCCOC(=O)Nc1nc(=O)n([C@@H]2O[C@H](C)[C@@H](O)[C@H]2O)cc1F [capecitabine]
most common side effects ([1]; (30%)): diarrhea, hand-and-foot syndrome, nausea, vomiting, abdominal pain, fatigue/weakness, and hyperbilirubinemia
